Laboratory results: PMC3179954, “A bacterial PriB with weak single-stranded DNA binding activity can stimulate the DNA unwinding activity of its cognate PriA helicase” (BMC Microbiology, 2011)

What was measured:
[1] = biological target: T1, N. gonorrhoeae PriA (N. gonorrhoeae) (UniProt Q5F6V8)
T1 sequence: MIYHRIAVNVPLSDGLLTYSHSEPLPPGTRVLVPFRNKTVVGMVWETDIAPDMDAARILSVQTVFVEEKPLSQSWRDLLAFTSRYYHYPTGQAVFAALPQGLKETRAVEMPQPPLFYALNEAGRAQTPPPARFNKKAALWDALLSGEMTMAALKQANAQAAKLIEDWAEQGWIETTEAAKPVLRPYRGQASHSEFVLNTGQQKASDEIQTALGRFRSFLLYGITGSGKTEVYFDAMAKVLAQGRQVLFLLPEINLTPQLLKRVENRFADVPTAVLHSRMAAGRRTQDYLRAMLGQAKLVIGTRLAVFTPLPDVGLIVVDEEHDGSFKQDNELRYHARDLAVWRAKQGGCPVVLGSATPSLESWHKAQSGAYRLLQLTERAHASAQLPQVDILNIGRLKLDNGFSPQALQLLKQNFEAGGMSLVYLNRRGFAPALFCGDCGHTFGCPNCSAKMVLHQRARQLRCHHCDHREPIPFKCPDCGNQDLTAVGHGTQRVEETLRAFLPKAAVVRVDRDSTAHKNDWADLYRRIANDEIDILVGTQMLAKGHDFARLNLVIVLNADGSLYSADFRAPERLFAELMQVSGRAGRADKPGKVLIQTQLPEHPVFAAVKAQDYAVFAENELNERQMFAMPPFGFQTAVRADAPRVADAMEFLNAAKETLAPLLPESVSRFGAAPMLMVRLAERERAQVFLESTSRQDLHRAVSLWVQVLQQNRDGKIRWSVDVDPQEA

[2] = biological target: T1, N. gonorrhoeae PriA (N. gonorrhoeae); remark: listed apart in the source
[3] = substrate: Nc1ncnc2c1ncn2[C@@H]1O[C@H](COP(=O)(O)OP(=O)(O)OP(=O)(O)O)[C@@H](O)[C@H]1O; test: NADH-coupled spectrophotometric ATPase assay (pyruvate kinase / lactate dehydrogenase); type: biochemical, Neisseria gonorrhoeae; details: 100 nM Fork 3 DNA, no PriB, 10 nM PriA, 20 mM Hepes pH 8, 50 mM NaCl, 25°C
Description: NADH-coupled spectrophotometric ATPase assay (pyruvate kinase / lactate dehydrogenase) on N. gonorrhoeae PriA

PriB = biological target: T2, PriB (Neisseria gonorrhoeae, UniProt Q5F924 1-100); test: fluorescence polarization; 20 mM Tris-HCl pH 8, 10% glycerol, 50 mM NaCl, 1 mM 2-mercaptoethanol, 0.1 mg/ml BSA, 1 nM fluorescein-labeled DNA, 25 C; details: protein: recombinant, chain copies: 2
T2 sequence: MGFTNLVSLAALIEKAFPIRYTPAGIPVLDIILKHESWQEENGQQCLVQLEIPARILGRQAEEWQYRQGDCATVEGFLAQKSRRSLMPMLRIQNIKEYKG

PriA helicase = biological target: T3, PriA helicase (Neisseria gonorrhoeae, UniProt Q5F6V8 1-729); test: as above; details: protein: recombinant
T3 sequence: T1 sequence

[4] = label: 3' fluorescein on S5 (nascent lagging strand), 25 bp duplex, 3' overhang 25 nt on strand 1
[5] = label: 3' fluorescein, single strand

B1: N. gonorrhoeae PriB (natural protein)
chain: T2 sequence
Binder B1 has a fold stimulation of PriA helicase activity by PriB (unwinding with versus without PriB; 2 nM PriA, 100 nM PriB monomers, 1 nM 15 bp fork, Fork 1) [1] of 1.2 fold, a fold stimulation of PriA helicase activity by PriB (unwinding with versus without PriB; 2 nM PriA, 100 nM PriB monomers, 1 nM 25 bp fork, Fork 2) [1] of 1.7 fold and a fold stimulation of PriA helicase activity by PriB (unwinding with versus without PriB; 2 nM PriA, 100 nM PriB monomers, 1 nM 40 bp fork, Fork 3) [1] of 2.4 fold. It also gave a percent unwinding of 1 nM Fork 3 by 2 nM PriA against PriB concentration (0 to 100 nM as monomers; 36% without PriB, near saturation at 20 nM) [2] of 86%.

B2: N. gonorrhoeae PriA (Neisseria gonorrhoeae FA 1090) (protein)
chain: T1 sequence
Binder B2 has a Km [3] of 54 ± 19 µM and a kcat [3] of 9 ± 1 s⁻¹.

B3: 3' Overhang (oML276/oML277) (mixed)
DNA 1: AACGTCATAGACGATTACATTGCTACATGGAGCTGTCTAGAGGATCCGAC
DNA 2: TAGCAATGTAATCGTCTATGACGTT
B3 showed a Kd (PriB; [4]) of 628 ± 95 nM and a Kd (PriA helicase; [4]) of 234 ± 62 nM.

B4: ssDNA (oML228) (ssDNA)
DNA: AAGCACAATTACCCACGC
In the case of B4, the Kd (PriB; [5]) is reported as 662 ± 37 nM and the Kd (PriA helicase; [5]) is reported as 307 ± 43 nM.
